B1: CPEB3 Ribozyme (parent)
chain: GGGGGCCACAGCAGAAGCGUUCACGUCGCGGCCCCUGUCAGAUUCUGGUGAAUCUGCGAAUUCUGCUGU

The variants in this data set derive from B1. Put plainly: self-cleavage, relative activity (ratio to wild type); higher = more cleavage; co-transcriptional.
In the case of G17U A60G, the self-cleavage worked out at 0.248.

For G17U A60U, the self-cleavage came out at 0.229.

With G17U A60C, the self-cleavage is 0.185.

Take G17U U61A: the self-cleavage worked out at 0.333.

As for C18G G31A, the self-cleavage amounted to 0.0986.

On to C18G G31C, for which the self-cleavage was determined as 0.142.

Turning to C18G G31U, the self-cleavage is 0.181.

Consider C18U C24A, for which the self-cleavage was found to be 0.416.

As to C18U C24G, the self-cleavage worked out at 0.164.

Regarding G17U G47C, the self-cleavage was 0.69.

For the variant G17U G47A, the self-cleavage was determined as 0.683.

As for G17U C34U, the self-cleavage is 0.514.

Regarding G17U C34G, the self-cleavage was found to be 0.177.

As for G17U G50A, the self-cleavage was found to be 0.571.

On to G17U G50U, for which the self-cleavage was determined as 0.552.

As to G17U G50C, the self-cleavage was 0.386.

Take G17U U53G: the self-cleavage stood at 0.336.

As to G17U U53A, the self-cleavage was 0.265.

C18G U67C: the self-cleavage was found to be 0.186.

C18G U67A: the self-cleavage was determined as 0.205.

In the case of C18A C63U, the self-cleavage came to 0.151.

Take C18A C63G: the self-cleavage stood at 0.147.

With C18A G28U, the self-cleavage was 0.889.

With C18A G28C, the self-cleavage is 0.426.

For the variant C18A G28A, the self-cleavage came to 0.12.

C18G U69C: the self-cleavage is 0.352.

On to C18G U69A, for which the self-cleavage was determined as 0.26.

For C18G U69G, the self-cleavage was 0.252.

Consider G17U U46C, for which the self-cleavage was found to be 0.537.

Regarding C18A A59C, the self-cleavage stood at 0.0942.

For G17U C32A, the self-cleavage amounted to 0.154.

On to C18A U44A, for which the self-cleavage is 0.185.

With C18A U44G, the self-cleavage was 0.123.

For C18G C32U, the self-cleavage came to 0.195.

Consider C18G C32A, for which the self-cleavage was found to be 0.105.

C18G C32G: the self-cleavage is 0.195.

As to C18A A23G, the self-cleavage worked out at 0.171.

As for G17U G30U, the self-cleavage worked out at 0.168.

As for G17U G30C, the self-cleavage stood at 0.119.

In the case of C18G U36A, the self-cleavage came out at 0.12.

As to C18G U36C, the self-cleavage stood at 0.122.

As to C18G U36G, the self-cleavage came to 0.145.

Take G17U G19A: the self-cleavage worked out at 0.209.

On to G17U G19U, for which the self-cleavage is 0.123.

For the variant G17U G37U, the self-cleavage stood at 0.169.

On to G17U G37C, for which the self-cleavage came out at 0.159.

As to G17U G37A, the self-cleavage amounted to 0.175.

For the variant C18A C34A, the self-cleavage is 0.145.

On to C18U C32U, for which the self-cleavage is 0.87.

In the case of C18U C32A, the self-cleavage was 0.381.

As to C18A U61A, the self-cleavage turned out to be 0.138.

As to C18A U61G, the self-cleavage amounted to 0.166.

As to G17U A59U, the self-cleavage was determined as 0.147.

G17U A59G: the self-cleavage was found to be 0.357.

With G17U U26A, the self-cleavage was found to be 0.312.

For G17U U26G, the self-cleavage came to 0.297.

With G17U U26C, the self-cleavage came out at 0.286.

Consider G17U A51U, for which the self-cleavage was 0.43.

In the case of G17U A51G, the self-cleavage came to 0.569.

C18G G37C: the self-cleavage is 0.111.

Take C18G G37U: the self-cleavage turned out to be 0.0757.

For G17U U20A, the self-cleavage worked out at 0.151.

For the variant G17U U20C, the self-cleavage turned out to be 0.107.

For the variant G17U U20G, the self-cleavage worked out at 0.192.

As to C18G C33G, the self-cleavage was 0.147.

Turning to C18G C33A, the self-cleavage was 0.193.

As for C18G C33U, the self-cleavage came to 0.226.

In the case of G17U U64C, the self-cleavage was found to be 0.251.

C18U C22U: the self-cleavage was found to be 0.108.

On to C18U C22G, for which the self-cleavage was 0.197.

C18G G65A: the self-cleavage was found to be 0.131.

Consider C18G G65C, for which the self-cleavage came to 0.141.

C18U A60G: the self-cleavage came out at 0.809.

Consider C18U A51G, for which the self-cleavage worked out at 0.853.

As to C18U A51U, the self-cleavage was determined as 0.851.

As for C18G C29U, the self-cleavage was 0.156.

As to C18G C29A, the self-cleavage was determined as 0.16.

Regarding C18G G25C, the self-cleavage was 0.092.

As for C18G G25U, the self-cleavage was found to be 0.151.

C18G U55A: the self-cleavage is 0.126.

On to C18G U55C, for which the self-cleavage amounted to 0.198.

As for G17U C18A, the self-cleavage came out at 0.137.

For the variant G17U C18G, the self-cleavage was 0.138.

For the variant G17U C18U, the self-cleavage was 0.155.

In the case of G17U U43C, the self-cleavage came to 0.446.

Take C18A G31C: the self-cleavage was found to be 0.124.

On to C18A G31U, for which the self-cleavage was 0.129.

Consider C18A G31A, for which the self-cleavage stood at 0.187.

Consider C18A C32A, for which the self-cleavage was 0.192.

For the variant C18A C32U, the self-cleavage came out at 0.22.

In the case of C18A C32G, the self-cleavage came to 0.181.

On to C18A U21C, for which the self-cleavage amounted to 0.181.

Take C18A U21G: the self-cleavage turned out to be 0.109.

As to C18A U21A, the self-cleavage stood at 0.107.

On to G17U C22U, for which the self-cleavage is 0.169.

Regarding G17U C22G, the self-cleavage was determined as 0.112.

As for G17U C22A, the self-cleavage was found to be 0.132.

Regarding C18G G41A, the self-cleavage amounted to 0.113.

Take C18G G41U: the self-cleavage stood at 0.134.

On to C18G G41C, for which the self-cleavage was found to be 0.0964.

Take C18A A60U: the self-cleavage worked out at 0.131.

Consider C18G C34A, for which the self-cleavage stood at 0.131.

Take C18G C34G: the self-cleavage came to 0.153.

On to C18G C34U, for which the self-cleavage worked out at 0.133.

On to C18A C45A, for which the self-cleavage was determined as 0.0998.

For C18A C45G, the self-cleavage was determined as 0.179.

Turning to C18A C45U, the self-cleavage was 0.21.

Take G17U G28A: the self-cleavage came to 0.108.

G17U G28C: the self-cleavage amounted to 0.11.

For C18G C54A, the self-cleavage worked out at 0.186.

As to G17U U44C, the self-cleavage turned out to be 0.368.

For G17U U44A, the self-cleavage came out at 0.395.

In the case of C18A U38C, the self-cleavage amounted to 0.0484.

With C18A U38A, the self-cleavage amounted to 0.0704.

In the case of C18G A42U, the self-cleavage turned out to be 0.137.

For C18G A42G, the self-cleavage is 0.229.

As for C18U C29A, the self-cleavage came out at 0.161.

Regarding C18U C29U, the self-cleavage came to 0.0827.

C18A G56C: the self-cleavage came to 0.186.

As for C18G C35G, the self-cleavage was determined as 0.151.

As to C18G C35U, the self-cleavage worked out at 0.203.

For the variant G17U U49C, the self-cleavage worked out at 0.554.

Consider G17U U49G, for which the self-cleavage came to 0.455.

Consider G17U U49A, for which the self-cleavage stood at 0.662.

In the case of C18G A51C, the self-cleavage came out at 0.159.

Regarding C18U A40C, the self-cleavage is 0.197.

On to C18A C24U, for which the self-cleavage worked out at 0.0604.

Turning to C18A C24A, the self-cleavage turned out to be 0.142.

G17U C33U: the self-cleavage is 0.347.

As for G17U C33A, the self-cleavage was 0.228.

Take C18G A59G: the self-cleavage stood at 0.22.

With C18G A59U, the self-cleavage worked out at 0.17.

For the variant C18G A52U, the self-cleavage was 0.0952.

C18A G65A: the self-cleavage turned out to be 0.148.

Turning to C18A G65U, the self-cleavage was determined as 0.102.

C18U C33U: the self-cleavage amounted to 0.821.

On to C18A G41U, for which the self-cleavage is 0.211.

C18A G41C: the self-cleavage turned out to be 0.119.

Take C18A U64G: the self-cleavage came to 0.178.

For the variant G17U U36G, the self-cleavage is 0.191.

G17U U36A: the self-cleavage stood at 0.0699.

For C18A C27A, the self-cleavage was determined as 0.163.

For C18U A52U, the self-cleavage worked out at 0.87.

Regarding C18U A52C, the self-cleavage was found to be 0.759.

For the variant C18U A52G, the self-cleavage amounted to 0.923.

Regarding C18A C57A, the self-cleavage is 0.117.

For C18A U69G, the self-cleavage stood at 0.307.

With C18A U69A, the self-cleavage amounted to 0.302.

Turning to G17U U67C, the self-cleavage was 0.537.

On to C18A G68C, for which the self-cleavage came out at 0.28.

Consider C18A G68A, for which the self-cleavage worked out at 0.357.

Turning to C18G C66A, the self-cleavage was found to be 0.11.

On to C18G C22G, for which the self-cleavage was found to be 0.236.

Turning to C18G C22A, the self-cleavage stood at 0.179.

Turning to C18G G50U, the self-cleavage was 0.143.

Consider C18G G50A, for which the self-cleavage came out at 0.266.

With G17U C66G, the self-cleavage was found to be 0.24.

With G17U G31U, the self-cleavage stood at 0.169.

Regarding G17U G31C, the self-cleavage amounted to 0.129.

Consider G17U G31A, for which the self-cleavage was found to be 0.191.

For the variant C18U A23G, the self-cleavage amounted to 0.715.

Take C18U A23C: the self-cleavage stood at 0.746.

With C18U A23U, the self-cleavage stood at 0.877.

Regarding C18A C35G, the self-cleavage amounted to 0.104.

Turning to C18A C35U, the self-cleavage is 0.222.

In the case of C18G G47A, the self-cleavage turned out to be 0.21.

As to C18G G58U, the self-cleavage stood at 0.176.
